{"source": "patent US7183387", "key": {"[1]": {"biological_target": "human C1q (Quidel) (human) (UniProt P02745)", "sequence (P02745 23-245, chain 1 of 3)": "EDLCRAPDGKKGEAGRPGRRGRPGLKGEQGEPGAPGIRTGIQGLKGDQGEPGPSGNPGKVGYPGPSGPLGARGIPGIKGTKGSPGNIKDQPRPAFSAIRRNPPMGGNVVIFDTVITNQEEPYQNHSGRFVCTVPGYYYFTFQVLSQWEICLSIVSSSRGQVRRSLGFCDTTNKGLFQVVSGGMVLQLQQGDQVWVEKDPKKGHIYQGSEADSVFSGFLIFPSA", "sequence (P02746 28-253, chain 2 of 3, further chain)": "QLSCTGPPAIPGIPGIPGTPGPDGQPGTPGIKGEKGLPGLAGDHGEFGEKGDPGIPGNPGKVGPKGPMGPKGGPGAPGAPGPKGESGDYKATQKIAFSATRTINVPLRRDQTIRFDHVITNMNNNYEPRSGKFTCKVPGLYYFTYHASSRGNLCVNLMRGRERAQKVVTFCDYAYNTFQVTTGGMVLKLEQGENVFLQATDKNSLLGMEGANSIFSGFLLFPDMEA", "sequence (P02747 29-245, chain 3 of 3, further chain)": "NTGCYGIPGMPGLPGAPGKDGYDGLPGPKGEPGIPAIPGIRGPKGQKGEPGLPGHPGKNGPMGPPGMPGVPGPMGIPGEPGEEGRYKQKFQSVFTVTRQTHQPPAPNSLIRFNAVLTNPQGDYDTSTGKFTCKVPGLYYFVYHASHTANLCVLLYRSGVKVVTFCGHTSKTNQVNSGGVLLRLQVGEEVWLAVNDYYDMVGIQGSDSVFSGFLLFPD", "experiment": "C1q ELISA"}, "[2]": {"biological_target": "human C1q (Quidel) (human) (UniProt P02745)", "experiment": "C1q ELISA", "remark": "listed apart in the source"}, "[3]": {"biological_target": "human C1q (Quidel) (human) (UniProt P02745)", "experiment": "C1q ELISA", "remark": "listed apart in the source"}, "[4]": {"biological_target": "human FcγRIIIA-Phe158 on cells (CHO cells stably transfected with α- and γ-chains; NK cells of Phe158/Phe158 donors) (human) (UniProt P08637)", "sequence (P08637 17-254, chain 1 of 2)": "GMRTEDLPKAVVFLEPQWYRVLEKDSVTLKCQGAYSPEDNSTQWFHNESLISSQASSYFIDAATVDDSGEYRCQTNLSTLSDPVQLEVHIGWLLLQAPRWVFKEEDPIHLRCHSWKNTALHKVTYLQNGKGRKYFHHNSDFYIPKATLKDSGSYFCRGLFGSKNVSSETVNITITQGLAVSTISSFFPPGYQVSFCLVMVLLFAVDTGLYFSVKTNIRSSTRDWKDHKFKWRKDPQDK", "sequence (P30273 19-86, chain 2 of 2, further chain)": "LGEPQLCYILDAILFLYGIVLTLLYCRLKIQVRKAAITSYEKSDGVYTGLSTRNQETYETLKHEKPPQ", "experiment": "cell-based or functional assay"}, "[5]": {"biological_target": "human FcγRIIB α subunit extracellular domain-6His-GST fusion (human) (UniProt P31994)", "sequence (P31994 other isoform, or with tags, fused parts or gaps, form in doubt)": "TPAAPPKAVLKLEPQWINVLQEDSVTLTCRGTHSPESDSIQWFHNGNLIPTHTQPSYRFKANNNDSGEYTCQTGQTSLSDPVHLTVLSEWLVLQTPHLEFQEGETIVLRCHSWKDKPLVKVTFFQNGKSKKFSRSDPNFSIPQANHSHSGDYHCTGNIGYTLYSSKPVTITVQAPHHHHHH", "experiment": "ELISA, IgG:IgE hexamers on receptor-GST"}, "[6]": {"biological_target": "human FcγRIIIA-F158 α subunit extracellular domain-6His-GST fusion (human) (UniProt P08637)", "experiment": "ELISA, IgG:IgE hexamers on receptor-GST"}, "[7]": {"biological_target": "human FcγRIIA-R131 α subunit extracellular domain-6His-GST fusion (human) (UniProt P12318)", "sequence (P12318 other isoform, or with tags, fused parts or gaps, form in doubt)": "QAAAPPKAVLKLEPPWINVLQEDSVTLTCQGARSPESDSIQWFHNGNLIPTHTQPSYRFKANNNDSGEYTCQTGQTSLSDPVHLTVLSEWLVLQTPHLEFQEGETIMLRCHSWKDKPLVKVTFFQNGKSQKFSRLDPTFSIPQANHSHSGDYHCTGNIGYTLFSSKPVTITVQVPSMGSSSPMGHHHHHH", "experiment": "ELISA, IgG:IgE hexamers on receptor-GST"}, "[8]": {"biological_target": "CD20 antigen on WIL2-S cells (UniProt P11836)", "sequence (P11836 whole entry)": "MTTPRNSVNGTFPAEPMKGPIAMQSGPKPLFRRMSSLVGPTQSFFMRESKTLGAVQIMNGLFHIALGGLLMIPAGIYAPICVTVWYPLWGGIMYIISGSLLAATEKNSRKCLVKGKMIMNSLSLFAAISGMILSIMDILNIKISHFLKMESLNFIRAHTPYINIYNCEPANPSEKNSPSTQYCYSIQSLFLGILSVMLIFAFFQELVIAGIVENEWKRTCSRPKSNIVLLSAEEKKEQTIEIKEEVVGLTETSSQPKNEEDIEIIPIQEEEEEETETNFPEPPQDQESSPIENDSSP", "experiment": "flow cytometry, WIL2-S cells"}, "[9]": {"biological_target": "human FcγRIIB α subunit extracellular domain-His6-GST fusion (human) (UniProt P31994)", "sequence (P31994 other isoform, or with tags, fused parts or gaps)": "as the sequence (P31994 other isoform, or with tags, fused parts or gaps, form in doubt) above", "experiment": "immune complex ELISA, E27 background"}, "[10]": {"biological_target": "human C1q (Quidel) (human) (UniProt P02745)", "experiment": "cell-based or functional assay"}, "[11]": {"biological_target": "human FcγRIIA-Arg131 α subunit extracellular domain-His6-GST fusion (human) (UniProt P12318)", "sequence (P12318 other isoform, or with tags, fused parts or gaps)": "as the sequence (P12318 other isoform, or with tags, fused parts or gaps, form in doubt) above", "experiment": "hexamer ELISA"}, "[12]": {"biological_target": "human neonatal Fc receptor (FcRn), biotinylated (human) (UniProt P55899)", "sequence (P55899 24-297 limits assumed, chain 1 of 2)": "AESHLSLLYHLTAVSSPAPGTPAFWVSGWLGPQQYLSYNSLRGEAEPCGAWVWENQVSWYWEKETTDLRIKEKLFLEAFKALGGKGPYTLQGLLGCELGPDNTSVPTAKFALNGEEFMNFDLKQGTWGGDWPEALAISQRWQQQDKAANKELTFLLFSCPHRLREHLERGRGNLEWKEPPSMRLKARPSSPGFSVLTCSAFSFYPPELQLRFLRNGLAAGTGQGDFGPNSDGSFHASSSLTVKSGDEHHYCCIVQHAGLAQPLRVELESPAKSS", "sequence (P61769 21-119 limits assumed, chain 2 of 2, further chain)": "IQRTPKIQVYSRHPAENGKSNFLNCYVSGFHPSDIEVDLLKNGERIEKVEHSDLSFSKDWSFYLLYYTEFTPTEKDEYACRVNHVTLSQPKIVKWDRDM", "experiment": "FcRn ELISA, pH 6.0"}, "[13]": {"biological_target": "human FcγRIIA-R131 α subunit extracellular domain-His6-GST fusion (human) (UniProt P12318)", "sequence (P12318 other isoform, or with tags, fused parts or gaps, form in doubt)": "as the sequence (P12318 other isoform, or with tags, fused parts or gaps, form in doubt) above", "experiment": "ELISA, IgG:IgE hexamer on coated FcγRIIA-R131-GST; value carried over from Table 6, 7 or 8"}, "[14]": {"biological_target": "human FcγRIIA-R131 α subunit extracellular domain-His6-GST fusion (human) (UniProt P12318)", "experiment": "ELISA, IgG complex, receptor coated"}, "[15]": {"biological_target": "human FcγRIA α subunit extracellular domain-His6-GST fusion (human) (UniProt P12314)", "sequence (P12314 other isoform, or with tags, fused parts or gaps)": "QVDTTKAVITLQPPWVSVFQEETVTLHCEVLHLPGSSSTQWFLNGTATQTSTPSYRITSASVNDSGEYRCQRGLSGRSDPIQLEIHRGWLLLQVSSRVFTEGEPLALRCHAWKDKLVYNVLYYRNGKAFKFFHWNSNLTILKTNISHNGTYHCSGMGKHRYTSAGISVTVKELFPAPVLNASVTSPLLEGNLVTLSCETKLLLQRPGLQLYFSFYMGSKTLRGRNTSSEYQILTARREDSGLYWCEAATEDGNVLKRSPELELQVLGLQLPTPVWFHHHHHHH", "experiment": "FcγRI ELISA and THP-1 cells, averaged"}}, "note": "Where two headings read alike, the source gives them in different places."}
{"substance": "C2B8 K326W (antibody)", "values": [{"measurement": "fold increase in binding against wild type", "setting": "[1]", "value": 5, "unit": "fold"}, {"measurement": "fold increase in binding against wild type", "setting": "[2]", "value": "> 2", "unit": "fold"}]}
{"substance": "C2B8 E333S (antibody)", "values": [{"measurement": "fold increase in binding against wild type", "setting": "[1]", "value": "> 2", "unit": "fold"}, {"measurement": "fold increase in binding against wild type", "setting": "[3]", "value": 2, "unit": "fold"}]}
{"substance": "anti-p185HER2 IgG1 variant Ser298Ala/Glu333Ala/Lys334Ala (antibody)", "values": [{"measurement": "ADCC, NK cells of Phe158/Phe158 donors", "setting": "[4]", "value": "> 100", "unit": "%"}]}
{"substance": "C2B8 K326E (antibody)", "values": [{"measurement": "fold increase in binding against wild type", "setting": "[1]", "value": "> 2", "unit": "fold"}]}
{"substance": "C2B8 K326M (antibody)", "values": [{"measurement": "fold increase in binding against wild type", "setting": "[1]", "value": "> 2", "unit": "fold"}]}
{"substance": "E27 IgG1 variant K320(339)R (IG2 235) (antibody)", "values": [{"measurement": "ratio to native IgG1", "setting": "[5]", "value": 0.95}, {"measurement": "ratio to native IgG1", "setting": "[6]", "value": 0.86}, {"measurement": "ratio to native IgG1", "setting": "[7]", "value": 1.24}]}
{"substance": "C2B8 P329A (antibody)", "values": [{"measurement": "percentage of the wild type", "setting": "[8]", "value": 112, "unit": "%"}]}
{"substance": "E27 IgG1 variant S267(280)T (antibody)", "values": [{"measurement": "ratio to native IgG1", "setting": "[6]", "value": 0.05}]}
{"substance": "anti-IgE E27 IgG1 Pro329Ala (antibody)", "values": [{"measurement": "percentage of the wild type", "setting": "[9]", "value": 96, "unit": "%"}]}
{"substance": "C2B8 E318A (antibody)", "values": [{"measurement": "CDC (% of wild type)", "setting": "[10]", "value": 108}, {"measurement": "decrease in binding against wild type", "setting": "[1]", "value": 30, "unit": "%"}, {"measurement": "percentage of the wild type", "setting": "[8]", "value": 89, "unit": "%"}]}
{"substance": "C2B8 K320A (antibody)", "values": [{"measurement": "CDC (% of wild type)", "setting": "[10]", "value": 108}, {"measurement": "percentage of the wild type", "setting": "[8]", "value": 102, "unit": "%"}]}
{"substance": "C2B8 K326D (antibody)", "values": [{"measurement": "fold increase in binding against wild type", "setting": "[1]", "value": "> 2", "unit": "fold"}]}
{"substance": "anti-IgE E27 IgG1 Glu233Pro/Leu234Val/Leu235Ala/Gly236deleted (antibody)", "values": [{"measurement": "ratio to native IgG1", "setting": "[11]", "value": 0.08}, {"measurement": "ratio to native IgG1", "setting": "[12]", "value": 0.54}]}
{"substance": "C2B8 P331A (antibody)", "values": [{"measurement": "fold lower binding than wild type", "setting": "[1]", "value": 60, "unit": "fold"}, {"measurement": "percentage of the wild type", "setting": "[8]", "value": 103, "unit": "%"}]}
{"substance": "anti-IgE E27 IgG1 variant Asp270Ala (antibody)", "values": [{"measurement": "ratio of binding of the variant to that of native IgG1 (ratio (variant/native IgG1))", "setting": "[13]", "value": 0.06}]}
{"substance": "anti-IgE E27 IgG1 variant S298(317)V (antibody)", "values": [{"measurement": "ratio of binding, variant/native IgG1 (mean)", "setting": "[14]", "value": 0.11}]}
{"substance": "C2B8 E333A (antibody)", "values": [{"measurement": "increase in binding against wild type", "setting": "[1]", "value": 30, "unit": "%"}]}
{"substance": "C2B8 K326M-E333S (antibody)", "values": [{"measurement": "CDC", "setting": "[10]", "value": 2, "unit": "fold"}, {"measurement": "fold better binding than wild type", "setting": "[1]", "value": "> 3", "unit": "fold"}]}
{"substance": "anti-IgE E27 IgG1 Asn297Ala (antibody)", "values": [{"measurement": "ratio to native IgG1", "setting": "[15]", "value": 0.15}]}
{"substance": "C2B8 K326A (antibody)", "values": [{"measurement": "increase in binding against wild type", "setting": "[1]", "value": 30, "unit": "%"}]}
{"substance": "C2B8 K326A-E333A (antibody)", "values": [{"measurement": "CDC", "setting": "[10]", "value": 2, "unit": "fold"}, {"measurement": "fold better binding than wild type", "setting": "[1]", "value": "> 3", "unit": "fold"}]}
{"substance": "E27 IgG1 variant K320(339)R (IG2 172) (antibody)", "values": [{"measurement": "ratio to native IgG1", "setting": "[5]", "value": 0.66}, {"measurement": "ratio to native IgG1", "setting": "[6]", "value": 0.68}, {"measurement": "ratio to native IgG1", "setting": "[7]", "value": 0.71}]}
{"substance": "C2B8 (human IgG1 constant region) A327 changed to glycine (antibody)", "values": [{"measurement": "increase in binding against wild type", "setting": "[1]", "value": 50, "unit": "%"}]}
